Some results are limits rather than exact numbers.

Among the targets are His119 (UniProt position 119, YAAELHLVHWN); His107 (UniProt position 107, GQGSEHTVDKK); His96 (UniProt position 96, IQFHFHWGSLD).
Holding throughout (test): NMR
Common to all, as to conditions: 308 K; not stated (50 mM buffer); 50 mM MES, MOPS, HEPES, TRIS/HCl or CAPS; zinc-loaded, inhibitor-free, folded

On to “Carbonic anhydrase II (HCAII), wild type (Homo sapiens)”, for which the pKa in the data set with His119 is recorded as <5.1 (not titrating in the studied pH range, 5.1-9.9); in the data set with His107 it was <5.1 (not titrating in the studied pH range, 5.1-9.9); with His96 it was <5.1 (not titrating in the studied pH range, 5.1-9.9).
